{
  "source": "the DeepSol protein solubility set",
  "data": [
    {"test": "soluble on expression in E. coli; label from the status in PepcDB or PDB records", "values": [
      {"sequence": "MLSHETIWSAIDTLAERHQLTPSALAKRAGLDPTSFNKSKRFGPDGRKRWPSTESVSKVLEATGASVDQFFGYAFGRAQTMQPSGADNAIPLLGFAQAGSGGFFDDGGFPAGQGWDVVEFPSSPERKQGVYALEVQGESMMPLYRDGDILIVEPGAPVRRGDRVVLKSRDGEVMAKVLARQSPKNIELLSLNPEHPNRSFDMADVEWIARIIWASQ", "soluble on expression in E. coli": "not soluble"},
      {"sequence": "MGSDKIHHHHHHMDLQNKTLLITGIDEFIGLRAAELAITQGMKVRGLQTSTNKDKAQKLGAEVIVGSITDAAIAHKACQGVDIVLHTEQLTEEAGPIKNFREINVNGAVNMAKAAKNAGVKCFVHLSSVMVYGFNYSDRITESGTLSGDNNPYCQTKIEAETELLPLNSPPDFGLIIIRAGDIYGPGSIPWIVRPILMMRQKLFAYANEGQGVINHVYIDNLIDAIFLAVEKDAYGEIFNITDGEETSWKEYFMRLAAMEGASAPMSIPKDEMKLFLKLRNQGQKLFRKKADILPESVDFMTRPYAYSITKAQTILDYKPKVDLEQGLSQTKIWLQNTDIQKLVK", "soluble on expression in E. coli": "not soluble"},
      {"sequence": "MAEKEHNPGNVKPNRSWTSVLGTKITFSEGLILNIEGYYKYIFNRMYIPVSIGLDDFDIRPQFNGEGRVWGIDLMLQKLQSRYWDGWLSYSYSWARYRDPSSGNATIGFSGGTRGNDWYFPNFHRFHNLNLVINIKPAPQFNFYTRFGLASGTQLPRRTTDRPATYPVFMFDDPETPGIPKFVQRYNWPSETDEDNRTTPTLSMDIKFSFFGKNRTGKTRYEIYFALENVLSLVYRPQGNTRFNTFTGVIETGSDAASYGLPIPIPSFGFKFSY", "soluble on expression in E. coli": "not soluble"},
      {"sequence": "MRYEALRLLCFFDLPMESKDEKRIYRNFRKELISNGFEMLQFSVYYRTCPNRSFANKFYKKLKMSNLPAGNVRLLAVTEKQFSEMTLIIGGKTKQEEIVSDNKLVIILEHHHHHH", "soluble on expression in E. coli": "soluble"},
      {"sequence": "DGLEGMDDPDATSKKVVPLGVEIYEINGPFFFGVADRLKGVLDVIEETPKVFILRMRRVPVIDATGMHALWEFQESCEKRGTILLLSGVSDRLYGALNRFGFIEALGEERVFDHIDKALAYAKLLVETAEER", "soluble on expression in E. coli": "not soluble"},
      {"sequence": "MAHHHHHHMKGCTLQNNFNHTAPFCGEWNSTILSGSLPPNSGGSSCVINLIKDEVHTVNGNTPRGITITSDTTKDGVFCTMDANGCPFAVDREIERGVNRMKAITKHGTCHMAYATSGGRTCDDSYDRSTRNYHDEEDEEWYEEDEEEGEDSPRIHIIDEHRDGRLLGNILCGMSRAGERISQGLDMLSPLEKRKSGRCAAIESVDYNNTRRRGGGGAETQKGLFQNYYNTGRGRWASRNHCRTNGWDESVSVESCFSHTYNQQWRGREPDYAMMEAHAALDGRSFCEGTYLSSTKLSERKKRVALSGSRVCRDAGKVIVQDNCPYDHKKRHKGRRQCQSPFGEEKIRANDPFDSPKNAITHIKKAGSAGSDDNDSCNPHSKSPGLTGSGSRCSQKETAGRSAEQRNGSGKAASPKTSPHKDELKEKESTVVKKD", "soluble on expression in E. coli": "not soluble"},
      {"sequence": "MFRISLEEFEGPLDLLLFFIKRDELDIYNIPISKITGDFIAYIHAMRRLNLEVAAEFIYMASMLMSIKARMLLPRAEPVDGEADEFDPRTELVQRLLEYKRIKEGASELELMALDRERMFPRGYFEELEPAVIDEMDEPVNRPTLYHLMLAYQSVLDNMPKVRTQNVTDAPVTVEEQSALIMARLGERLQVSFTSLFQEFREAIVIVVTFLAVLELCRNRKISVIVKEGVNDFWISQRDHAE", "soluble on expression in E. coli": "soluble"},
      {"sequence": "MGSDKIHHHHHHMSNNSKISWTTTTWNVTAGCDPISDGCKNCYARMMAERLKAMGQAKYQNGFIPTIHSECLNEPFGWKGNKLVFVVSMGDLFHKDIPFDFIDKVIEVITKCPQHTFQILTKRAERMYEYFSTHAIPENVWLGVTVENQKVKGRIDYLKKLDAPVRFLSCEPLLEDLGTLDLSDIDWVIVGGESGNRARKVEKDWILNIKSQCDASTSTAFFFKQWGTWGADGVKRSAKENGCLLDGKEYHAYPTPRKIKP", "soluble on expression in E. coli": "not soluble"},
      {"sequence": "MLHKRFRRYSMLKRYGQIIEVLQKYGFGYIVDQIGLGSFGDFTSRLKKQEKRDEHNLSGPVRTRRILEELGPTYIKLGQLLSMRRDLVPLEYAAEFSKLQDDAPSFGFEEVELIIREELGLPVEDLFESFEKKPLACASIGQVHRAKLKNGDDVVVKVQRPGIKEVIESDLDIMYSLSRLLTEHIPEARLYRPVELVDELSRSILAEIDYSQEGWNTDRFAENFKDSEQIHIPKVYWDYTGLEHHHHHH", "soluble on expression in E. coli": "not soluble"},
      {"sequence": "MEKQQDLPFPYEFRELNPEEDKLVKANLGAFPTTYVKLGPKGYMVYRPYLKDAANIYNMPLRPTDVFVASYQRSGTTMTQELVWLIENDLNFEAAKTYMSLRYIYLDGFMIYDPEKQEEYNDILPNPENLDMERYLGLLEYSSRPGSSLLAAVPPTEKRFVKTHLPLSLMPPNMLDTVKMVYLARDPRDVAVSSFHHARLLYLLNKQSNFKDFWEMFHRGLYTLTPYFEHVKEAWAKRHDPNMLFLFYEDYLKDLPGCIARIADFLGKKLSEEQIQRLCEHLNFEKFKNNGAVNMEDYREIGILADGEHFIRKGKAGCWRDYFDEEMTKQAEKWIKDNLKDTDLRYPNMEL", "soluble on expression in E. coli": "soluble"},
      {"sequence": "MFKAIVSAATLRDALDSVSVLVDECKIRLNEESLSIRAVDPANVGMVDLTLDAAAFESYEAHGGVIGVNLSRLEEVAGMAGAGDLIHLTLDEETRKLNIRIDGLSYTLALIDPDSIRQEPDIPDLDLAANIVLEGTHLDRGIKAADMVSDHIRLRVDGAEETFHIEAEGDTDDVDLSLPPADLISIEAGAADSLFSLDYLKDMNKAIPTDAEVTVELGEEFPVKLHYQIAEGMGTITYMLAPRIQSD", "soluble on expression in E. coli": "soluble"},
      {"sequence": "MSILRIHAREIFDSRGNPTVEVDLYTAKGLFRAAVPSGASTGIYEALELRDNDKTRFMGKGVSQAVEHINKTIAPALVSKKVNVVEQEKIDKLMIEMDGTENKSKFGANAILGVSLAVCKAGAVEKGVPLYRHIADLAGNPEVILPVPAFNVINGGSHAGNKLAMQEFMILPVGASSFREAMRIGAEVYHNLKNVIKEKYGKDATNVGDEGGFAPNILENKEALELLKTAIAKAGYTDQVVIGMDVAASEFYRSGKYDLDFKSPDDPSRYITPDQLADLYKSFVQNYPVVSIEDPFDQDDWGAWQKFTASAGIQVVGDDLTVTNPKRIAKAASEKSCNCLLLKVNQIGSVTESLQACKLAQSNGWGVMVSHRSGETEDTFIADLVVGLCTGQIKTGAPCRSERLAKYNQILRIEEELGSKAKFAGRSFRNPLAK", "soluble on expression in E. coli": "soluble"},
      {"sequence": "MSLDDGTGLFTIGQLARRTGLSVRTIRYWSDEGALPPVTRSSGGYRLYDAGSVARLELIRTLRELGLGLDDVREVLAGETTVAEVAATHVTALDAQIRALKVTRAVLSTVARRGSTAEEMTLMNKLARLSAAERRRILEEFADEMFRGLDTADPVIRERMRNTAVDLPDEPTPEQVDAWVELVELLQDPEFRAQMRAAAEFNAADRGHDSPAGASLWFVRRLVQLAADARQRGEGHHHHHH", "soluble on expression in E. coli": "not soluble"},
      {"sequence": "MKIVSIKIKNYRVFEDIKITNIPSFCVIIGANGTGKSTLFDVFGFLRDALKNNIRQALQIRGGFKEVVTRGKESEDIEIELKFRMEILATERLVTYILIIGQEGKKPVIKREILRYKRGEYGSPFHFLDFHNGQGYAIRNEESFESDEELEREEQKLESADILAIKGLGQFQRFKAANAIRSLIENWHVSDFHISDARGSKAALYAEHLSPTGDNIPIVAQYIYQEHPEIFAEILQRMKQRVPGISNVEAKEIEGGSLILKFQDQAFEDSFVDLYVSDGTIKMFAYLILLFDPKPHPLLCVEEPENQLYPTLLRELAEEFASYAHRGGQVFVSTHSPDFLNAVPLDSIFWLIKIQGVTKVEKAADHEVLRNLIAAGDLPGYLWNQGWFEGVAPLEHHHHHH", "soluble on expression in E. coli": "not soluble"}
    ]}
  ]
}
